# Source: US10337022B2, “Methods of increasing root biomass in plants” (Agresearch Limited, priority 2014, dated 2019)
# T1: NINJA (Arabidopsis thaliana, UniProt Q9SV55)
# T1 construct: expressed in transfected cells; host or cells: yeast strain MaV203
# T1 sequence (Q9SV55 with tags, fused parts or gaps): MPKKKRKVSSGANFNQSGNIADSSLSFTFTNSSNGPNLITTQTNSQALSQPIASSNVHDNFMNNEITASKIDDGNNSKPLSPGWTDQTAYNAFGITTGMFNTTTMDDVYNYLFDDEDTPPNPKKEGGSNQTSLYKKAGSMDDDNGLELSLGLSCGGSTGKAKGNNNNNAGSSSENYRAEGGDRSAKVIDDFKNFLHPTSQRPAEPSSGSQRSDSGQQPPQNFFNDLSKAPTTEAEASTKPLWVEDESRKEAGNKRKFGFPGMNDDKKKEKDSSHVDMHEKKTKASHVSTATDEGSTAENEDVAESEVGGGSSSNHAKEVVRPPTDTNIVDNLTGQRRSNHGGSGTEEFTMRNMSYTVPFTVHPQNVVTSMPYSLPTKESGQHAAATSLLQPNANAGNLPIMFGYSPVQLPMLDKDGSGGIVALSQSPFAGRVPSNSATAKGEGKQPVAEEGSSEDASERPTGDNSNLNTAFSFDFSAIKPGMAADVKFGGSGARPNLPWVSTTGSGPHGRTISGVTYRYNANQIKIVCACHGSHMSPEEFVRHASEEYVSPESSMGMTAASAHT
# T2: BZR1 (Arabidopsis thaliana, UniProt Q8S307)
# T2 construct: expressed in transfected cells; host or cells: yeast strain MaV203
# T2 sequence (Q8S307 with tags, fused parts or gaps): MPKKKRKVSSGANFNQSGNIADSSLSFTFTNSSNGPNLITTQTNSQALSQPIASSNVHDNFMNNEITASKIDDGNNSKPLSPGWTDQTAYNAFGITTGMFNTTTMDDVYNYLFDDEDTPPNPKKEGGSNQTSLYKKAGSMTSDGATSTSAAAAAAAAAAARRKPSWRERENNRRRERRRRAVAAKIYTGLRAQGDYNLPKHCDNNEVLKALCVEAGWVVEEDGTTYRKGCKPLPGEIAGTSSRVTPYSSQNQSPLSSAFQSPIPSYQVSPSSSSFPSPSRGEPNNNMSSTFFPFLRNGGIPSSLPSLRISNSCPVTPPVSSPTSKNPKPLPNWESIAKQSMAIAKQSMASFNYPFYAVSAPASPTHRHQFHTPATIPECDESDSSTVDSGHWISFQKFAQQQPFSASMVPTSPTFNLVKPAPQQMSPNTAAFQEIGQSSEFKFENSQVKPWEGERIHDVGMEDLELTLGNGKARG
# What was measured:
# NINJA = molecular target: T1, NINJA; assay: Yeast two hybrid (Y2H) interaction with NINJA; assay type: binding; settings: PPD1 as bait protein
# Procedure: Combinations of bait and prey constructs were used to co-transform yeast strain MaV203 (Invitrogen), with selection on synthetic dropout (SD) SD/-Leu/-Trp agar plates. Transformed strains were tested for interactions using 10 μl droplets of 1 in 10 and 1 in 100 dilutions on SD/-Leu/-Trp/-His plates with different concentrations of 3-aminotriazol (3-AT) (Sigma).
# [1] = system: PEAPOD deletion mutant Δppd Arabidopsis thaliana ecotype Landsberg erecta; assay: Complementation of the Arabidopsis Δppd mutant leaf phenotype; assay type: in vivo; settings: optimized PEAPOD coding sequence under CaMV35s promoter, seedlings (FIG. 13)
# Excerpt: The functionality of any PEAPOD sequence can be confirmed by complementation of the Arabidopsis Δppd mutant leaf phenotype. Complementation of the Arabidopsis Δppd mutant leaf phenotype was first used to identify the Arabidopsis PPD gene (White 2006). This was seen by a restoration of the wild type flattened leaf phenotype and normal rosette shape as opposed to the domed leaf and the twisting of the rosette to a “propeller” phenotype.
# Constructs above can be transformed into Arabidopsis by the floral dip infiltration method (Clough and Bent, 1998 Plant J 16, 735-43). The Δppd line is transformed to express the PPD polypeptides by standard techniques. Transgenic plants are confirmed by standard PCR analysis techniques with a combination of transgene-specific and T-DNA primers.
# Complementation of the Δppd line to produce a wild-type leaf and rosette phenotype in T1 seedlings (the off-spring of the infiltrated plant) confirms PEAPOD functionality of the introduced gene, which can be shown in photographs.
# BZR1 = molecular target: T2, BZR1; assay: Yeast two hybrid (Y2H) interaction with BZR1; assay type: binding; settings: yeast strain MaV203
# [2] = system: alfalfa (variety USD5) plants; assay: Root biomass analysis of alfalfa transformants; assay type: in vivo; settings: constitutive promoter, approximately 6 weeks in growth cabinet
# Procedure: Cuttings of approximately equal size were taken from WT and alfalfa (variety USD5) plants transformed with Arabidopsis PPD under a constitutive promoter. Cuttings were planted into plastic grow bags containing potting mix. […] The increase in root biomass was quantified by washing the roots under running water (these were photographed, FIG. 12) then the attached above ground portion (leaves and stems) was removed and the roots dried at 65° C. for 48 hr then weighed Table 5.
# ryegrass plants = assay: Root biomass analysis of ryegrass transformants; assay type: in vivo; settings: approximately 6 weeks in glasshouse
# Procedure: (§1) An equal number (typically 4-10) of tillers were taken from WT and ryegrass plants transformed with Arabidopsis PPD under a constitutive promoter. Tillers were planted into plastic grow bags containing potting mix and pruned to be of equal height. […] The increase in root biomass was quantified by washing the roots under running water then removing the attached above ground portion (leaves and stems) and drying the roots at 65° C. for 48 hr then weighing the dry weights (Table 2).
# as §1, with “one of three root promoters.” for “a constitutive promoter.”, “3 and Table 4)” for “2).”
molecule,measurement,setting,value
"Arabidopsis PPD: Arabidopsis thaliana PEAPOD 1 protein, At4g14713, SEQ ID NO: 1 (protein, listed as Arabidopsis thaliana) MDVGVSPAKSILAKPLKLLTEEDISQLTREDCRKFLKDKGMRRPSWNKSQAIQQVLSLKALYEPGDDSGAGIFRKILVSQPVNPPRVTTTLIEPSNELEACGRVSYPEDNGACHRMDSPRSAEFSGGSGHFVSEKDGHKTTISPRSPAETSELVGQMTIFYSGKVNVYDGIPPEKARSIMHFAANPIDLPENGIFASSRMISKLISKEKMMELPQKGLEKANSSRDSGMEGQANRKVSLQRYREKRKDRKFSKAKKCPGVASSSLEMFLNCQPRMKAAYSQNLGCTGSPLHSQSPESQTKSPNLSVDLNSEGI",Y2H interaction with NINJA,NINJA,direct interactor
same,PEAPOD functionality by complementation of Δppd mutant,[1],functionally equivalent
same,Y2H direct interaction with BZR1,BZR1,no direct interaction
same,root growth beyond the grow bag compared to WT plants,[2],increase in root biomass/growth/length/branching
same,root growth beyond the grow bag compared to WT plants,ryegrass plants; constitutive promoter,increase in root biomass/growth/length/branching
same,root growth beyond the grow bag compared to WT plants,ryegrass plants; one of three root promoters,increase in root biomass/growth/length/branching
